B1: NAPc2: single-chain, non-glycosylated 85 amino acid protein, 9732 Da; blocks TF signaling and coagulation via inhibited TF-FVIIa-FX(a) complex (protein, listed as Ancylostoma caninum)
chain: KATMQCGENEKYDSCGSKECDKKCKYDGVEEEDDEEPNVPCLVRVCHQDCVCEEGFYRNKDDKCVSAEDCELDNMDFIYPGTRN

Key:
[1] = tested on: permanent LAD ligation mouse model of MI
Description: B), High-frequency ultrasound echocardiography obtained in parasternal long axis (PLAX) with measurement of left ventricular ejection fraction (LVEF, %) and left ventricular end diastolic volume (LVEDV, μl) on day 7 after operation. […] Ordinary one-way ANOVA, Sidak's multiple comparison test, n=4-7 animals per group.
C), Experimental design: Mice were injected with NAPc2 (1 mg/kg/d) once daily by i.p. injection from day 1 through day 7. D), High-frequency echocardiography obtained in parasternal long axis (PLAX) with measurement of LVEF, LVEDV on day 7 after LAD ligation. E), Representative blots for protein expression analysis of pERK1/2, NOX2, TGF-β1 and α-SMA in infarcted myocardium obtained from vehicle or NAPc2 treated mice. F-H, Mice were injected with NAPc2 (1 mg/kg/d) and/or vehicle (1 mg/kg/d) once daily by i.p. injection from day 1 through day 7 followed by longitudinal analysis. […] Echocardiographic studies over 4 weeks from day 7 for LVEF (%), LVEDV (p1) in PLAX M-mode; two-way ANOVA, Bonferroni's multiple comparisons test, n=6-12 animals per each group (G). Kaplan-Meier survival analysis of LAD ligated versus sham operated NAPc2 876 and vehicle treated mice after 4 weeks. Log-rank (Mantel-Cox) test, n=7-15 animals per group (H).

human monocytes = experiment: Isolated human monocytes exposed to hypoxia (OGD) plus inflammatory cytokine cocktail, western blot; format: cell-based; conditions: NAPc2 200 ng/ml; cytokine cocktail 20 ng/ml plus hypoxia
Description: Representative blots and quantification. […] Representative images and quantification of replicates.
Monocytes isolation and in vitro culture: Bone marrow derived cell suspensions were isolated by flushing femurs and tibias of 8-12 weeks old mice. Cell aggregates were removed by gentle pipetting and the cell lysates were passed through a 70 μm nylon strainer to remove the cell debris. Furthermore, to enrich monocytes population, mouse monocyte isolation Kit ([…] Technologies Inc., Vancouver, BC, Canada) was used according to standard protocols provided by the manufacturer. To mimic in vivo ischemic conditions, a protocol of oxygen-glucose-deprivation (OGD) is applied along with the cytokine cocktail mix (IL-6, TNF-α and MCP-1) at concentrations of 20 ng/ml for 4 hours followed by the protein expression analysis of pERK1/2, NOX2 and TGF-β1 on isolated monocytes. […] For blocking TF-FVIIa signaling on human monocytes, isolated monocytes from healthy individuals were treated with NAPc2 in the presence of OGD along with the cytokine cocktail mix followed by the protein expression analysis of pERK1/2, NOX2 and TGF-β1.

[2] = prevention of venous thromboembolism, total knee replacement patients (ref 27); cited from earlier work
[3] = human, in vivo; cited from earlier work
[4] = NAPc2 1 mg/kg/d i.p. day 1-7, western blot
[5] = NAPc2 1 mg/kg/d i.p. starting 1 day after MI, 7 d after LAD ligation

Row | Molecule | cardiac function in sham-operated mice ([1]; trametinib 1 mg/kg/d oral, sham surgery) | ERK1/2 phosphorylation (human monocytes) | NOX2 expression (human monocytes) | TGF-β1 activation (human monocytes) | cardiac function (LVEF, LVEDV by echocardiography) ([1]; NAPc2 1 mg/kg/d i.p. day 1-7, day 7 after LAD ligation) | cardiac infiltration of CD11b+ myeloid cells ([1]; NAPc2 1 mg/kg/d i.p. day 1-7, flow cytometry of infarcted myocardium) | ERK1/2 phosphorylation in the infarcted heart [1, 4] | NOX2 expression in the infarcted heart [1, 4] | TGF-β1 activation in the infarcted heart [1, 4] | up-regulation of the downstream target α-SMA in the infarcted heart [1, 4] | levels of NOX2 in circulating myeloid cells (PBMCs) [1, 5] | levels of active TGF-β1 in circulating myeloid cells (PBMCs) [1, 5] | cardiac fibrosis (fibrotic areas normalized to surface area) ([1]; short term NAPc2 1 mg/kg/d i.p. from 1 d until 7 d post MI, longitudinal analysis, compared to vehicle) | survival (Kaplan-Meier, 4 weeks) ([1]; short term NAPc2 1 mg/kg/d i.p. from 1 d until 7 d post MI, LAD ligated mice) | cardiac function in chronic MI (LVEF, LVEDV over 4 weeks) ([1]; short term NAPc2 1 mg/kg/d i.p. from 1 d until 7 d post MI, compared to vehicle) | antithrombotic effect [2] | safety [3]
1 | CC(=O)Nc1cccc(-n2c(=O)n(C3CC3)c(=O)c3c(Nc4ccc(I)cc4F)n(C)c(=O)c(C)c32)c1 [trametinib, reference compound] | no significant effects | – | – | – | – | – | – | – | – | – | – | – | – | – | – | – | –
2 | B1 | – | reduced | suppressed | suppressed | improved cardiac function | attenuated | diminished | diminished | diminished | diminished | attenuated | attenuated | significantly reduced | improved survival | improved cardiac function | has been demonstrated | documented safety

Source: US20240108688A1, “Inhibitors of the tissue factor-protease activated receptor 2 (TF-PAR2) signaling pathway for use in the treatment or prevention of heart failure (HF) and associated or resulting diseases” (priority 2020, published 2024)
